Data: PMC4021362

Tested on: Hydra Myc2 p15;Hydra Max p22 (Hydra magnipapillata?;Hydra magnipapillata?)
Assay: EMSA
Details: equimolar mixture, heterodimer; EMSA with 0.3 ng (25,000 cpm) 32P-labeled 18-mer dsDNA; binding buffer, salt, pH and temperature not given in the material

E-box USF 18-mer
Kd: 0.0174 µM
